Measured values: patent publication US20260069689A1 (Regeneron, published 2026)

Molecular target: SARS-COV-2 RBD extracellular domain expressed with a C-terminal myc-myc-hexahistidine tag (SARS-COV-2 RBD-mmH) (SARS-CoV-2)
Assay: SPR Biacore, mAb captured on anti-hFc, RBD-mmH analyte, 37 C

B1: mAb14280 (antibody, V domains shown)
VH: QVQLVQSGAEVKKPGASVRVSCKASGYTFTGNYIHWVRQAPGQGLEWMAWINPNSGGKNYAQKFQGRVTLTRDTSVNTAYMELSRLRSDDTAMYYCARDVNYNILTGPGGLWGQGTLVTVSS
VL: QSALTQPPSASGSPGQSVTISCTGTSSDVGGYNFVSWYQQHPGKAPKLMIYEVSKRPSGVPDRFSGSKSGNTASLTVSGLQAEDEADYYCSSYAGSNNFVFGTGTKVTVLG
Question: Which results are given for B1?
Answer: Kd: 16.2 nM; koff: 0.0248 s⁻¹; kon: 1.53e+06 M⁻¹ s⁻¹; t½: 0.5 min

B2: mAb14285 (antibody, V domains shown)
VH: QVQLVQSGAEVKKPGASVKVSCKASGYTFTGYFIHWVRQAPGQGLEWMGWISPISGGTNYAQKFQGRVTVTRDTSITTAYMELSRLTSDDTAVYHCAREGGTWKGDFDYWGQGTLVTVSS
VL: QSALTQPASVSGSPGQSITISCTGTSSDVESYNLVSWYQQHPGKAPKLMIYEGSKRPSGVSNRFSGSKSGNTASLTISGLQAEDEADYYCSSYAGSSTWVFGGGTKLTVLG
Question: What does the source list for B2?
Answer: Kd: 13.1 nM; koff: 0.0274 s⁻¹; kon: 2.09e+06 M⁻¹ s⁻¹; t½: 0.4 min

B3: mAb14256 (antibody, V domains shown)
VH: QVQLQESGPGLVKPSETLSLTCTVSGGSISSHYWSWIRQPPGKGLEWIGYIYYSGSSNYNPSLKSRVTISVDTSKNQFSLKLNSVTAADTAVYYCARHYDILTGFDWFDPWGQGTLVTVSS
VL: QSVLTQPPSVSGAPGQRVTISCTGSSSNIGTHYDVHWYQQLPGTAPKLLIYGNSNRPSGVPDRFSGSKSGTSASLAITGLQAEDEADYYCQSFDNSLTAPYVFGTGTKVTVLG
Question: With B3 as the binder, how does the Kd read?
Answer: The Kd was 8.24 nM.

Question: And the koff?
Answer: The koff was 0.0115 s⁻¹.

Question: And the kon?
Answer: The kon was 1.4e+06 M⁻¹ s⁻¹.

Question: What about the t½ of the same binder?
Answer: Its t½ is 1 min.

B4: mAb14282 (antibody, V domains shown)
VH: QVQLVQSGAEVKKPGASVKVSCKASGYIFTDHYMHWVRQAPGQGLEWMGWINPNSGATNYAQNFQGRVTMTRDTSIITVYMELSRLRSDDTAVYYCARDSSPYMIRYTMDVWGQGTTITVSS
VL: QSALTQPASVSGSPGQSITISCTGTSSDVGSYNLVSWYQQHPGKAPKLMIYELTKRPSGVSNRFSGSKSGNTASLTISGLQAEDEADYYCSSYRGSVTDVVFGGGTKLTVLG
Question: Which Kd does the source give for B4 here?
Answer: The Kd was 5.37 nM.

Question: What about the koff of the same binder?
Answer: The koff was 0.0106 s⁻¹.

Question: What about the kon of the same binder?
Answer: The kon was 1.98e+06 M⁻¹ s⁻¹.

Question: And the t½?
Answer: Its t½ is 1.1 min.

B5: mAb14230 (antibody, V domains shown)
VH: EVQLVESGGGLIQPGRSLRLSCAASGFTFDDYAMHWVRQAPGKGLEWVSGISWNSVSIDYADSVKGRFTISRDNAKNSLYLQMTSLTVEDTALYYCAKAFGYETLTGSDYFAYWGPGTLVTVSS
VL: EIVLTQSPGTLSLSPGERATLSCRASQTVISTYLAWYQQKPGQSPRLLIYGASSRATGIPDRFSGSGSGTDFTLTISRLEPEDFAVYYCQQYGSSPQLTFGGGTKVEIKR
Question: How did the Kd turn out when B5 was run?
Answer: The Kd was 7.61 nM.

Question: What about the koff of the same binder?
Answer: Its koff is 0.00876 s⁻¹.

Question: What about the kon of the same binder?
Answer: The kon was 1.15e+06 M⁻¹ s⁻¹.

Question: And the t½?
Answer: The t½ was 1.3 min.

B6: mAb14281 (antibody, V domains shown)
VH: QVQLVQSGADVKKPGASVKVSCKTSGYIFTGYYIHWVRQAPGQGLEWMGWINPNSGGTNSAQKFQGRVTMTRDTSISTVYMELSRLRSDDTAVYYCAKSNSFSVLDYNFDYWGQGTLVTVSS
VL: SSELTQDPAVSVALGQTVRITCQGDSLRSYYASWYQQKPGQAPVLVIYDKNNRPSGIPDRFSGSSSGNTASLTITGAQAEDEADYYCNSRDSSRNHLVVFGGGTKLTVLG
Question: With B6 as the binder, how does the Kd read?
Answer: The Kd was 5.2 nM.

Question: And the koff?
Answer: The koff was 0.00582 s⁻¹.

Question: And the kon?
Answer: The kon was 1.12e+06 M⁻¹ s⁻¹.

Question: And the t½?
Answer: The t½ was 2 min.

B7: mAb14286 (antibody, V domains shown)
VH: QVQLVQSGAEVKKPGASVKVSCKASGYTFTDYFIHWVRQAPGQGLEWMGWINPTSGGTNYAQKFRGRVTMTRDTSISTAYVELSRLRSDDTALYYCARDLPFYSDTKQFDYWGQGTLVTVSS
VL: QSALTQPASVSGYPGQSITISCTGTSSDVGGYNYVSWYQQHPGKAPKLMIFDVSNRPSGVSNRFSGSKSGNTASLTFSGLQAEDEADYYCSSYTSSSTLVFGGGTKLTVLG
Question: B7 was tested. Which Kd did it give?
Answer: The Kd was 3.07 nM.

Question: What about the koff of the same binder?
Answer: The koff was 0.0104 s⁻¹.

Question: What about the kon of the same binder?
Answer: The kon was 3.38e+06 M⁻¹ s⁻¹.

Question: What about the t½ of the same binder?
Answer: Its t½ is 1.1 min.
